Test results taken from the supplement of paper PMC10065799, “High-throughput profiling of sequence recognition by tyrosine kinases and SH2 domains using bacterial peptide display” (eLife, 2023).

What was measured:
Fyn = Fyn (UniProt P06241); assay: phosphorylation enrichment, bacterial display (enrichment ratio); higher = better substrate or ligand; peptides without Tyr show the background
FGFR1 = FGFR1 (UniProt P11362); assay: as above
Fer (mouse) = assay: as above
c-Abl (mouse) = assay: as above
EPHB1 = EPHB1 (UniProt P54762); assay: as above
Sequence of EPHB1 (P54762 whole entry, looked up): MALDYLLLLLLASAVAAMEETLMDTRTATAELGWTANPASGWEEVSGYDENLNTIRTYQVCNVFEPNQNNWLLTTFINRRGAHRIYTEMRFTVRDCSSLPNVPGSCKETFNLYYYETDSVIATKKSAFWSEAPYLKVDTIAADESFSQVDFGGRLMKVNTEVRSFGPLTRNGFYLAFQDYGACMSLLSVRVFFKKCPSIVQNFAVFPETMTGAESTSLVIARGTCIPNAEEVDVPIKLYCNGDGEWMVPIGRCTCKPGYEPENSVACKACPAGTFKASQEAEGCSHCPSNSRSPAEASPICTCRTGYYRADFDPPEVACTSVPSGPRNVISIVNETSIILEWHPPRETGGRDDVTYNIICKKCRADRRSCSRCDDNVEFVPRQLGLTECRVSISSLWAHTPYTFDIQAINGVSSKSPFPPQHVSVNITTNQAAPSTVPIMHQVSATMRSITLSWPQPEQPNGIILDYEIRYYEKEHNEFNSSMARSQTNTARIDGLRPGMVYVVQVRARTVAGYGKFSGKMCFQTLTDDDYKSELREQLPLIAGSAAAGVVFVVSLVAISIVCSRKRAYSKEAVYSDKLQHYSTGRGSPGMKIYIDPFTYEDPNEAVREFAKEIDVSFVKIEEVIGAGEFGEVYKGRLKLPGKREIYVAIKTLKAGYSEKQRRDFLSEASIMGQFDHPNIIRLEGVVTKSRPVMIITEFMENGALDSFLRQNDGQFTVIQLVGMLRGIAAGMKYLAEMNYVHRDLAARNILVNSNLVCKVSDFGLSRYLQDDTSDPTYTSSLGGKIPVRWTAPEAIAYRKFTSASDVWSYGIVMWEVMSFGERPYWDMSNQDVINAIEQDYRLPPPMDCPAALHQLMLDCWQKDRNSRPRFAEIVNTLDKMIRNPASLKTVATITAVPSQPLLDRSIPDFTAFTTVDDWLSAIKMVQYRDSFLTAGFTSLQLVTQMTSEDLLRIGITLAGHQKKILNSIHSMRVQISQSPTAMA

EPHB2 = EPHB2 (UniProt P29323); assay: as above
Sequence of EPHB2 (P29323 whole entry, looked up): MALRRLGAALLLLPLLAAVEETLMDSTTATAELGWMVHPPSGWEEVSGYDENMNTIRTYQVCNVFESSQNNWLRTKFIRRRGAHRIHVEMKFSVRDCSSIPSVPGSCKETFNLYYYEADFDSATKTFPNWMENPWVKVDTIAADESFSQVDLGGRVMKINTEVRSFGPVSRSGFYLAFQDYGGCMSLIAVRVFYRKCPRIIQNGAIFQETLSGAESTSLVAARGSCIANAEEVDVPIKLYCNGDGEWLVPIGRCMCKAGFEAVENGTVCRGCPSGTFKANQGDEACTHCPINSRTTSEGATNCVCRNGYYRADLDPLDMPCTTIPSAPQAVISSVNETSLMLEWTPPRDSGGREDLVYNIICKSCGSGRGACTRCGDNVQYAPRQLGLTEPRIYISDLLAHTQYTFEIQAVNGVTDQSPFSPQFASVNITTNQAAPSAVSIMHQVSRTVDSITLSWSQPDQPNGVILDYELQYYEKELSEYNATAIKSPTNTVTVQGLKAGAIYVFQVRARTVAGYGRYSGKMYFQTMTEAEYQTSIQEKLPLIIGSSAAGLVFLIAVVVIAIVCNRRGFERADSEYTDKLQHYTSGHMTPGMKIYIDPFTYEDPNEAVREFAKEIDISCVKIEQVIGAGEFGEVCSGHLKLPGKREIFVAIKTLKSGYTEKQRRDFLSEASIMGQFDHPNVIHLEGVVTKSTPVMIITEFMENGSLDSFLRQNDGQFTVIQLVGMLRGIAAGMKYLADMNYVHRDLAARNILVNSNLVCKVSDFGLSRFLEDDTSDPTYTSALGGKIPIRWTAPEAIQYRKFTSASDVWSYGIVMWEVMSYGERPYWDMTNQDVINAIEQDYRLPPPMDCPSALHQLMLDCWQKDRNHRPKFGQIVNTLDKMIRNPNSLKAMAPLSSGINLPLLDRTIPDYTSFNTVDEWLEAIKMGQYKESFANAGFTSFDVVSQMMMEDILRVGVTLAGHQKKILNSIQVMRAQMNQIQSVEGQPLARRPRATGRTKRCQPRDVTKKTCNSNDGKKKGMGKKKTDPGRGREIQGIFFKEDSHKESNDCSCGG

Hck = Hck (UniProt P08631); assay: as above
Sequence of Hck (P08631 whole entry, looked up): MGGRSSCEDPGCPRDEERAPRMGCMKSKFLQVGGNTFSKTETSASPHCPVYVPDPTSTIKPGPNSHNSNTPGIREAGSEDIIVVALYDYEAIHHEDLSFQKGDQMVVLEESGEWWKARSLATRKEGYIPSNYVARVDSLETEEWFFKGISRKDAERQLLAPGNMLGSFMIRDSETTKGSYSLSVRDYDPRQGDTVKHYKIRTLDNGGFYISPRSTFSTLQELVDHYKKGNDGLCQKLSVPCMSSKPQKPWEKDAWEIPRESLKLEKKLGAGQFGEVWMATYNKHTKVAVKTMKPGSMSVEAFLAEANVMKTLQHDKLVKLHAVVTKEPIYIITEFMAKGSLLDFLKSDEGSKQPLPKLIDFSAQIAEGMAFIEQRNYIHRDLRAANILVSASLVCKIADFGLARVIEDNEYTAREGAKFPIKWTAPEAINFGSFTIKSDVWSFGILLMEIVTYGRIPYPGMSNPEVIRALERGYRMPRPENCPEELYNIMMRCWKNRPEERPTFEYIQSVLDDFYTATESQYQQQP

MERTK = MERTK (UniProt Q12866); assay: as above
Jak2 = Jak2 (UniProt O60674); assay: as above
Fes = Fes (UniProt P07332); assay: as above
Sequence of Fes (P07332 whole entry, looked up): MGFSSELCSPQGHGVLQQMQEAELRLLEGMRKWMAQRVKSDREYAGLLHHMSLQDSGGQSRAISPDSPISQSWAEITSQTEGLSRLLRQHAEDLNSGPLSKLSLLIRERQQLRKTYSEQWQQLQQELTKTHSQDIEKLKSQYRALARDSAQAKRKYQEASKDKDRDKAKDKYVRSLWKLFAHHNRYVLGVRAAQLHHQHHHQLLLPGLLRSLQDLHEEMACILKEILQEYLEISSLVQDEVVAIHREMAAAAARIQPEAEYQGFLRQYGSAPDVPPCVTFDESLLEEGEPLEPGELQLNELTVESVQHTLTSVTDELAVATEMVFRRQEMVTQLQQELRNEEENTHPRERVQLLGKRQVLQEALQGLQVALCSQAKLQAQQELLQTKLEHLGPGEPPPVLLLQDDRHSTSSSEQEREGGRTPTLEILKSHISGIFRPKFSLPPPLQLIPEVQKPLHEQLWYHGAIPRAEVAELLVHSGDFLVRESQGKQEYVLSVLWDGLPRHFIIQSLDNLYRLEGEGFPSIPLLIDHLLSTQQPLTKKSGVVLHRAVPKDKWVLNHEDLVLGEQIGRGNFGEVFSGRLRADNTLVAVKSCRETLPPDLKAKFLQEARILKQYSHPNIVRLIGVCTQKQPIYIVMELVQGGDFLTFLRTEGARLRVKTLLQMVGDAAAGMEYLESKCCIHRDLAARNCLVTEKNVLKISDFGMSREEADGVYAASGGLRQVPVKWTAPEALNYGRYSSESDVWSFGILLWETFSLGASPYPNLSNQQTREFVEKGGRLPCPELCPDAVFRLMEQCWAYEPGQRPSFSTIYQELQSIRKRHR

c-Src = assay: as above
AncSZ = assay: as above
FGFR3 = FGFR3 (UniProt P22607); assay: as above
c-Src SH2 = assay: SH2 binding enrichment of the phosphorylated peptide, bacterial display (enrichment ratio); higher = better substrate or ligand; peptides without Tyr show the background
SHP2-C SH2 = assay: as above
Grb2 SH2 = Grb2 SH2 (UniProt P62993); assay: as above
Sequence of Grb2 SH2 (P62993 whole entry, looked up, the tested form may be a part): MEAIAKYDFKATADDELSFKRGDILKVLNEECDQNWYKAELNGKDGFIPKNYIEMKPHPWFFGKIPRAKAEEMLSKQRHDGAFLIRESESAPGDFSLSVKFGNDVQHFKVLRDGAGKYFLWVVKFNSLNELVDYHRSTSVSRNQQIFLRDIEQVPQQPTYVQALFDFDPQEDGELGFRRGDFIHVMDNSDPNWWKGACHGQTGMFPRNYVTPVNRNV
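For SH2 binding enrichment of the phosphorylated peptide, bacterial display in this document: peptide library displayed on the E. coli surface as eCPX fusions, selected cells deep-sequenced, score is each peptide's frequency after selection divided by its frequency in the input.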
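For phosphorylation enrichment, bacterial display in this document: 11-residue human phosphosite peptides and single-mutation variants displayed on the E. coli surface, counted by deep sequencing, each peptide's frequency after selection divided by its frequency in the unselected input library; frequency after pTyr selection over input frequency; kinase dosed for 20-30% of maximal phosphorylation in three min.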

Sequence of Fyn (P06241 whole entry, looked up): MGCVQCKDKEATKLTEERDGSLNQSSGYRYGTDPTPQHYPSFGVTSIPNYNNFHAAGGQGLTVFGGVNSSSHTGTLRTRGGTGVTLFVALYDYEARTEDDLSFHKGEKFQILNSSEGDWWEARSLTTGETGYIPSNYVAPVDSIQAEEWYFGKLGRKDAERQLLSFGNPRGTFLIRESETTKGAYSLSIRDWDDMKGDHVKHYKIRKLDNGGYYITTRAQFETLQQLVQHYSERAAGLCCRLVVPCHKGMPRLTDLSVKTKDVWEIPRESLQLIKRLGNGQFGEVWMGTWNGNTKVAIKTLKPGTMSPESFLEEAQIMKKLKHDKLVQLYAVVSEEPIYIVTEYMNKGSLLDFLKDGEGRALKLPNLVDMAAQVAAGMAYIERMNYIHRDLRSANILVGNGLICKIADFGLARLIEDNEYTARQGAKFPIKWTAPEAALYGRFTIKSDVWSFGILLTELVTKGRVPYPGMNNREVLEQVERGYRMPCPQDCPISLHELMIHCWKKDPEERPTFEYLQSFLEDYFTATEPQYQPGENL
Sequence of FGFR1 (P11362 whole entry, looked up): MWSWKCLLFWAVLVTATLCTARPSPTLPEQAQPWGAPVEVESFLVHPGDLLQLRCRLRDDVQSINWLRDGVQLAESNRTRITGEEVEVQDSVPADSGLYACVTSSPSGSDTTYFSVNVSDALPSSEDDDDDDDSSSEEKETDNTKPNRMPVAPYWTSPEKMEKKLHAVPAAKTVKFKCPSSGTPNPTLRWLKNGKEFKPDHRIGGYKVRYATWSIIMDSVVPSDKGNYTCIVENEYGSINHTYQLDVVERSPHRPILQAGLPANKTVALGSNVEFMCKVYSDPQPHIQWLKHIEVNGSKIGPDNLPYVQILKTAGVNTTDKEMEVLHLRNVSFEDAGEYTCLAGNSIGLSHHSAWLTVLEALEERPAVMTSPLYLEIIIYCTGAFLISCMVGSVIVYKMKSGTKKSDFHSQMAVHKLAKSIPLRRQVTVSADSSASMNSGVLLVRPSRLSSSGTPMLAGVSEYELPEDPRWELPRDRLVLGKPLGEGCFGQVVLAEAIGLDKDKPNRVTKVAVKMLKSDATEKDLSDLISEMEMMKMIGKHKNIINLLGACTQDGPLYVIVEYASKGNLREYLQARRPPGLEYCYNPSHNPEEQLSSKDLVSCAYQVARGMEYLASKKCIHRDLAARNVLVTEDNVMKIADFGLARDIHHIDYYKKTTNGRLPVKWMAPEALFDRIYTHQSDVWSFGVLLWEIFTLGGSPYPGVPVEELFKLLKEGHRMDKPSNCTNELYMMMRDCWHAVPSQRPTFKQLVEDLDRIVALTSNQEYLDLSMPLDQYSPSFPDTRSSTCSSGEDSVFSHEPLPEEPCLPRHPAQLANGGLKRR

| Sequence | phosphorylation enrichment (Fyn) | phosphorylation enrichment (FGFR1) | phosphorylation enrichment (Fer (mouse)) | phosphorylation enrichment (c-Abl (mouse)) | phosphorylation enrichment (EPHB1) | phosphorylation enrichment (EPHB2) | phosphorylation enrichment (Hck) | phosphorylation enrichment (MERTK) | phosphorylation enrichment (Jak2) | phosphorylation enrichment (Fes) | phosphorylation enrichment (c-Src) | phosphorylation enrichment (AncSZ) | phosphorylation enrichment (FGFR3) | SH2 binding enrichment (c-Src SH2) | SH2 binding enrichment (SHP2-C SH2) | SH2 binding enrichment (Grb2 SH2) |
| --- | --- | --- | --- | --- | --- | --- | --- | --- | --- | --- | --- | --- | --- | --- | --- | --- |
| LKKLEYLNLAL [LRRC6_Y70] | 0.408 | 1.36 | 0.549 | 0.574 | 0.81 | 0.987 | 0.489 | 0.296 | 1.23 | 1.43 | 0.367 | 1.05 | 1.14 | 0.424 | 1.49 | 2.59 |
| LKLIQYHLIQQ [AKAP4_Y554_T557I] | 0.553 | 0.687 | 0.544 | 1.16 | 0.95 | 0.737 | 0.659 | 0.774 | 1.4 | 1.67 | 0.582 | 1.2 | 0.924 | 2.22 | 4.15 | 1.51 |
| LKYAIYFEARE [LAMA2_Y1258] | 1.21 | 0.938 | 0.822 | 1.94 | 1.59 | 1.4 | 1.67 | 0.907 | 3.01 | 2.41 | 1.49 | 2.42 | 1.64 | 0.449 | 0.793 | 0.907 |
| LLARLYRGQAL [FGFR4_Y390_G388R] | 0.795 | 0.529 | 0.507 | 0.937 | 0.713 | 0.477 | 0.519 | 0.442 | 0.823 | 0.887 | 0.489 | 0.9 | 0.592 | 0.461 | 0.512 | 0.827 |
| LLLLFYVVRYC [MPZ_Y177] | 0.463 | 0.415 | 0.468 | 0.574 | 0.359 | 0.345 | 0.438 | 0.54 | 0.735 | 0.738 | 0.492 | 0.722 | 0.436 | 1.33 | 1.53 | 1.77 |
| LLREWYLPDPY [SIX3_Y225_Q227P] | 0.477 | 0.636 | 0.409 | 0.969 | 0.541 | 0.473 | 0.484 | 0.351 | 1.04 | 1.14 | 0.49 | 0.888 | 0.816 | 1.1 | 1.09 | 1.58 |
| LLREWYLQDPF [SIX3_Y225_YF] | 0.564 | 0.941 | 0.661 | 1.15 | 0.557 | 0.765 | 0.509 | 0.567 | 1.52 | 1.73 | 0.788 | 1.43 | 0.784 | 0.978 | 2.31 | 1.42 |
| LLRFLYFFVCS [SLC34A2_Y109_G106R] | 0.519 | 0.72 | 0.573 | 0.697 | 0.606 | 0.585 | 0.704 | 0.744 | 1.69 | 1.59 | 0.587 | 0.948 | 1.22 | 1.73 | 1.96 | 2.1 |
| LLRLAYLADIF [ZBED5_Y476] | 0.457 | 0.64 | 0.745 | 0.765 | 0.69 | 0.677 | 0.54 | 0.432 | 0.99 | 1.02 | 0.419 | 0.872 | 0.636 | 1.34 | 1.61 | 1.9 |
| LMQAEYWHDPI [PPT1_Y185_V181M] | 0.835 | 6.07 | 0.773 | 0.724 | 1.2 | 0.863 | 0.769 | 0.557 | 1.16 | 1.56 | 0.54 | 1.36 | 4.42 | 0.983 | 0.68 | 0.999 |
| LNAGAYSKVVE [PPT1_Y172_Q177E] | 0.306 | 0.436 | 0.551 | 0.46 | 0.431 | 0.416 | 0.411 | 0.448 | 0.541 | 0.664 | 0.523 | 0.447 | 0.378 | 2.03 | 1.08 | 0.758 |
| LNCDRYSVGLL [PDE6A_Y275] | 0.734 | 0.712 | 0.898 | 0.929 | 0.961 | 1.51 | 0.889 | 0.709 | 1.2 | 1.59 | 0.823 | 1.16 | 1.2 | 0.588 | 0.527 | 0.873 |
| LNERHYGGLTD [PGAM2_Y92_G97D] | 0.975 | 0.977 | 0.7 | 0.605 | 1.1 | 0.83 | 1.08 | 0.629 | 0.457 | 0.663 | 0.515 | 1.18 | 1.12 | 0.528 | 0.773 | 0.98 |
| LNPDGYEKAYE [CPXM2_Y427] | 0.797 | 0.633 | 0.365 | 0.773 | 0.696 | 0.816 | 0.489 | 0.364 | 2.41 | 1.53 | 0.478 | 1.12 | 0.789 | 4.86 | 0.729 | 0.93 |
